Reference: paper PMC10538476

Target: Human macrophage galactose-type lectin (MGL) isoform 2 extracellular domain (human)
Assay: SAXS; MGL-ECD at 1 mg/mL in 25 mM Tris pH 8, 150 mM NaCl, 4 mM CaCl2, 25°C; ESRF BM29 beamline; oligomeric state from the estimated molecular weight

Substance: Human macrophage galactose-type lectin (MGL) isoform 2 extracellular domain (domain or fragment)
- stoichiometry N: 3
